Values quoted from earlier work, collected in PMC6163503.

Experiments:
[1] = biological target: JAK2 catalytic domain (Homo sapiens) (UniProt O60674); experiment: SPR
[2] = biological target: Aminopeptidase N (Homo sapiens) (UniProt P15144)
Sequence of UniProt P15144 (P15144 2-967): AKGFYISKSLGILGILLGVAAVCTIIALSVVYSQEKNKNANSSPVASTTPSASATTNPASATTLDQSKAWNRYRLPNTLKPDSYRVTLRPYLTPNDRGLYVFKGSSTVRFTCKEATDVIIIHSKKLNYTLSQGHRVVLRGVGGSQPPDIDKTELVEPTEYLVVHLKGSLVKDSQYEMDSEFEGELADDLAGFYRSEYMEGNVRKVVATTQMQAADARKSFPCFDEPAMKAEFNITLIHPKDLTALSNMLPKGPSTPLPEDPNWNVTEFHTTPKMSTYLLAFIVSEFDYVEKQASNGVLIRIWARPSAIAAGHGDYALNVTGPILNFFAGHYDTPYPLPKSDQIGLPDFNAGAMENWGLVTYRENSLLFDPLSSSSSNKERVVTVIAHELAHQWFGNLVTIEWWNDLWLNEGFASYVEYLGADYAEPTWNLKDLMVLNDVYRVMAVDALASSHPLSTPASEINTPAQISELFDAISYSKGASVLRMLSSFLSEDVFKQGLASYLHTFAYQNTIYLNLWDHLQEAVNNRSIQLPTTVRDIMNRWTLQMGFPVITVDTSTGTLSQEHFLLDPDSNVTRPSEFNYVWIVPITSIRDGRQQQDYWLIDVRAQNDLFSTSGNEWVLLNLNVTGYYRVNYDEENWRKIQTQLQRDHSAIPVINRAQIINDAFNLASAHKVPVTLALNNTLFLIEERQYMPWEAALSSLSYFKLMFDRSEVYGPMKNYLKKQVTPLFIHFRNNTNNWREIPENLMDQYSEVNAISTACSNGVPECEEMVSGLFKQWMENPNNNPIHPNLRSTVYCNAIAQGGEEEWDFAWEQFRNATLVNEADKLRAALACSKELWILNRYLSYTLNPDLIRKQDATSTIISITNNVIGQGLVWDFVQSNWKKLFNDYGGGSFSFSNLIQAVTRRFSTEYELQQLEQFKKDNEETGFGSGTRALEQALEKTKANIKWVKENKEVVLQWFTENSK

Sequence of UniProt O60674 (O60674 849-1124): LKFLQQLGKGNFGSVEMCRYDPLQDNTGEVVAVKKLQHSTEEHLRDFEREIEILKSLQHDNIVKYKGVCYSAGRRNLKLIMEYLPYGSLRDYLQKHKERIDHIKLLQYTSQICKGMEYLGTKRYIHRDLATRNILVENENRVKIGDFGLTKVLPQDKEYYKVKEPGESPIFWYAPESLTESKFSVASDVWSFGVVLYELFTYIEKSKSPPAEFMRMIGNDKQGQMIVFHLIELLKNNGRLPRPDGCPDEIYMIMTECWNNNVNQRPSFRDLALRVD

Substance	Kd [1]	Ki [2]
SOCS3 KIR peptide KIR (from UniProt O14543)	2.03 µM	
SOCS3 KIRESS peptide KIRESS (from UniProt O14543)	1.86 µM	
SOCS3 ESS peptide ESS (from UniProt O14543)	> 1000 µM	
cyc-LHSPW		24.7 µM
